# From patent US20250019680
# Assays:
# [1] = test system: dRBD #3L (LwaCas13a with hnRNP A1 RRM2 98-196 inserted between N415 and N416, catalytically inactive HEPN2) R1046A/H1051A (LwaCas13a numbering) (Leptotrichia wadei / Homo sapiens); assay: EMSA
# [2] = test system: dRBD #4L (LwaCas13a with hnRNP C RRM 2-106 inserted between N415 and N416, catalytically inactive HEPN2) R1046A/H1051A (LwaCas13a numbering) (Leptotrichia wadei / Homo sapiens); assay: EMSA
# [3] = test system: RBD #2L LwaCas13a (hnRNP A1 1-104 in Loop 1) (Leptotrichia wadei / Homo sapiens); assay: cleavage_in_vitro; conditions: collateral cleavage of RNaseAlert
# [4] = test system: RBD #3L LwaCas13a (Leptotrichia wadei / Homo sapiens); assay: cleavage_in_vitro; conditions: collateral cleavage of RNaseAlert
# [5] = test system: RBD #4L LwaCas13a (Leptotrichia wadei / Homo sapiens); assay: cleavage_in_vitro; conditions: collateral cleavage of RNaseAlert
# [6] = test system: T1, RBD #6L LwaCas13a (ADAR1 126-202 in Loop 1) (Leptotrichia wadei / Homo sapiens); assay: cleavage_in_vitro; conditions: collateral cleavage of RNaseAlert
# T1 sequence: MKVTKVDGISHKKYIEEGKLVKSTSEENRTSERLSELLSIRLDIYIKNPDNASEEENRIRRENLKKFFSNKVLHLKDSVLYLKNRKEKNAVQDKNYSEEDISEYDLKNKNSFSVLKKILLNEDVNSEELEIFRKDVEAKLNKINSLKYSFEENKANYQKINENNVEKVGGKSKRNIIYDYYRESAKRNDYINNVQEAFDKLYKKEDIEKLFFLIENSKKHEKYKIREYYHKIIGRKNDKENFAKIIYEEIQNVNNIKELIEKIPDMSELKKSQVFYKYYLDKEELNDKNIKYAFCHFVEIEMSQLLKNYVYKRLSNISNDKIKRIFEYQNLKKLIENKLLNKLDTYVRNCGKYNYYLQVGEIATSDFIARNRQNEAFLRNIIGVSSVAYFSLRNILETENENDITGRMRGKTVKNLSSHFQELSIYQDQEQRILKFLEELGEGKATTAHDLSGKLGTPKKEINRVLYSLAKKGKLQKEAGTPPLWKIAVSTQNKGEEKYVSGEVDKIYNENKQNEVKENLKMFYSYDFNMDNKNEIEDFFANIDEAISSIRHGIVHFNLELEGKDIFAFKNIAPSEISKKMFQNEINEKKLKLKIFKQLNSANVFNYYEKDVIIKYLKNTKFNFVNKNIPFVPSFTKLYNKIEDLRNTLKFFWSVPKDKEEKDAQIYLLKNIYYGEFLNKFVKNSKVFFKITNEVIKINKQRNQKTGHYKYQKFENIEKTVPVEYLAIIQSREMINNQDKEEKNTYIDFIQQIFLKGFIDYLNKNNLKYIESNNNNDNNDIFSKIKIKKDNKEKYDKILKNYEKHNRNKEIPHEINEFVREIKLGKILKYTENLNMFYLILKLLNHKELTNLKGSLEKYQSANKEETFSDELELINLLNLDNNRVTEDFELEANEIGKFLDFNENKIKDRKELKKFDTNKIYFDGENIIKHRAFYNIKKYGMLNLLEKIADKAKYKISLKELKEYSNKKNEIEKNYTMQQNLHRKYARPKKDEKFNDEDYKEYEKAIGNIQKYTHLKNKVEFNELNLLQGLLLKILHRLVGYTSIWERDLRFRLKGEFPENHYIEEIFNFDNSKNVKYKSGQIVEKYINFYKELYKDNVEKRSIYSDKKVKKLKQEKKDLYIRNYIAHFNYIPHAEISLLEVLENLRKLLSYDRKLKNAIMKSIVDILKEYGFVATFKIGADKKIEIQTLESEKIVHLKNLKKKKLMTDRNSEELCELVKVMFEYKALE
# [7] = crRNA complex, 50 mM Tris pH 8.0, 60 mM NaCl, 5 mM MgCl2, 37 C
# [8] = crRNA complex, 5 mM MgCl2, 37 C
# [9] = collateral reporter binding by cr1/T1-bound complex, pH 7.5, 5 mM MgCl2, 0.01% Triton X-100
sequence,measurement,setting,value
GACUACCCCAAAAACGAAGGGGACUAAAACAAUCUGAGGGUCCACCAAACGUAAUGCG / ACCCCGCAUUACGUUUGGUGGACCCUCAGAUUCAAC [cr1_N crRNA ; T26_N_2 target (36 nt)],Kd,[1]; [7],23 nM
same,Kd,[2]; [7],18 nM
GACUACCCCAAAAACGAAGGGGACUAAAACAAUCUGAGGGUCCACCAAACGUAAUGCG / GUCUGAUAAUGGACCCCAAAAUCAGCGAAAUGCACCCCGCAUUACGUUUGGUGGACCCUCAGAUUCAACUGGCAGUAACCAGAAUGGAGAACGCAGUGGGGCGCG [cr1_N crRNA ; T1_N target (105 nt)],Kd,[1]; [8],12 nM
same,Kd,[2]; [8],11 nM
GACUACCCCAAAAACGAAGGGGACUAAAACUCACUCAAUACUUGAGCACACUCAUUAG / GUGAUAGAGCCAUGCCUAACAUGCUUAGAAUUAUGGCCUCACUUGUUCUUGCUCGCAAACAUACAACGUGUUGUAGCUUGUCACACCGUUUCUAUAGAUUAGCUAAUGAGUGUGCUCAAGUAUUGAGUGAAAUGGUCAUGUGUGGCGGUUCACUAUAUGUUAAACCAGGUGGAACCUCAUCAGGAGAUGCCACAACUGCUUAUGCUAAUAGUGUUUUUAACAUUUGU [cr2_RdRp crRNA ; T2_RdRp target],binding signal (% higher than WT),[3],164
same,binding signal (% higher than WT),[4],264
same,binding signal (% higher than WT),[5],241
same,binding signal (% higher than WT),[6],171
UUUUUUUUUUUUUUUUUUUU [U20 reporter],Kd,[1]; [9],230 nM
same,Kd,[2]; [9],150 nM
